Assay results reported in publication PMC10920880, “RNA compaction and iterative scanning for small RNA targets by the Hfq chaperone”.
Numbering of substitutions follows the chain as printed.

Columns and labels:
Hfq [1] = biological target: T1, Hfq (Escherichia coli K12, UniProt P0A6X3 1-102); test: smFRET; 5 nM sRNA (N13)-Hfq; rates 0.05 s-1 (49%) and 0.01 s-1; lifetime >~112 s; smFRET: 10 mM Tris-HCl pH 7.5, 50 mM NaCl, 50 mM KCl, 4 mM Trolox, 0.01% Nikkol, 0.8% glucose, RNasin, oxygen scavenger; EMSA: 1x TNK, 5% glycerol, 15 min RT, native 8% PAGE 1x TBE 4 C; details: protein: recombinant; tags: none (untagged); chain copies: 6; label: tether 5' biotin, 3' Cy5; RNA 3' extension paired to DNA tether; 5' hairpin
Hfq [2] = biological target: T1, Hfq; test: smFRET; sRNA (N13)-Hfq; smFRET: 10 mM Tris-HCl pH 7.5, 50 mM NaCl, 50 mM KCl, 4 mM Trolox, 0.01% Nikkol, 0.8% glucose, RNasin, oxygen scavenger; EMSA: 1x TNK, 5% glycerol, 15 min RT, native 8% PAGE 1x TBE 4 C; details: protein: recombinant; tags: none (untagged); chain copies: 6; label: tether 5' biotin, 3' Cy5; RNA 3' extension paired to DNA tether; 5' hairpin
Hfq [3] = biological target: T1, Hfq; test: smFRET; sRNA (N13)-Hfq; lifetime similar to (AAC)4; smFRET: 10 mM Tris-HCl pH 7.5, 50 mM NaCl, 50 mM KCl, 4 mM Trolox, 0.01% Nikkol, 0.8% glucose, RNasin, oxygen scavenger; EMSA: 1x TNK, 5% glycerol, 15 min RT, native 8% PAGE 1x TBE 4 C; details: protein: recombinant; tags: none (untagged); chain copies: 6; label: tether 5' biotin, 3' Cy5; RNA 3' extension paired to DNA tether; 5' hairpin
Hfq [4] = biological target: T1, Hfq; test: smFRET; sRNA (N13)-Hfq; 39% dynamic; smFRET: 10 mM Tris-HCl pH 7.5, 50 mM NaCl, 50 mM KCl, 4 mM Trolox, 0.01% Nikkol, 0.8% glucose, RNasin, oxygen scavenger; EMSA: 1x TNK, 5% glycerol, 15 min RT, native 8% PAGE 1x TBE 4 C; details: protein: recombinant; tags: none (untagged); chain copies: 6; label: tether 5' biotin, 3' Cy5; RNA 3' extension paired to DNA tether; 5' hairpin
Hfq [5] = biological target: T1, Hfq; test: smFRET; sRNA (N13)-Hfq; 23% dynamic; smFRET: 10 mM Tris-HCl pH 7.5, 50 mM NaCl, 50 mM KCl, 4 mM Trolox, 0.01% Nikkol, 0.8% glucose, RNasin, oxygen scavenger; EMSA: 1x TNK, 5% glycerol, 15 min RT, native 8% PAGE 1x TBE 4 C; details: protein: recombinant; tags: none (untagged); chain copies: 6; label: tether 5' biotin, 3' Cy5; RNA 3' extension paired to DNA tether; 5' hairpin
Hfq [6] = biological target: T1, Hfq; test: smFRET; sRNA (N13)-Hfq; prefers S6 site; smFRET: 10 mM Tris-HCl pH 7.5, 50 mM NaCl, 50 mM KCl, 4 mM Trolox, 0.01% Nikkol, 0.8% glucose, RNasin, oxygen scavenger; EMSA: 1x TNK, 5% glycerol, 15 min RT, native 8% PAGE 1x TBE 4 C; details: protein: recombinant; tags: none (untagged); chain copies: 6; label: tether 5' biotin, 3' Cy5; RNA 3' extension paired to DNA tether; 5' hairpin
Hfq [7] = biological target: T1, Hfq; test: smFRET; sRNA (N13)-Hfq; 57% dynamic; smFRET: 10 mM Tris-HCl pH 7.5, 50 mM NaCl, 50 mM KCl, 4 mM Trolox, 0.01% Nikkol, 0.8% glucose, RNasin, oxygen scavenger; EMSA: 1x TNK, 5% glycerol, 15 min RT, native 8% PAGE 1x TBE 4 C; details: protein: recombinant; tags: none (untagged); chain copies: 6; label: tether 5' biotin, 3' Cy5; RNA 3' extension paired to DNA tether; 5' hairpin; spacer stem-loop

B1: (AAC)4-N0-S6 mRNA on DNA tether (mixed)
RNA: GGACUCUAUCGAGUCCAACAACAACAACGACCUCGCGCCCAGGACGACACACUUUGGACAGGACACACAGGACACAGG
DNA: CCTGTGTCCTGTGTGTCCTGTCCAAAGTGTGTCGTCC
B1: binds (Hfq [1]).

B2: (AAC)4-N15-S6 mRNA on DNA tether (mixed)
RNA: GGACUCUAUCGAGUCCAACAACAACAACUCUACCAUCACCUAAGACCUCGCGCCCAGGACGACACACUUUGGACAGGACACACAGGACACAGG
DNA: B1 DNA
B2: binds (Hfq [2]).

B3: (AAC)4-N35-S6 mRNA on DNA tether (mixed)
RNA: GGACUCUAUCGAGUCCAACAACAACAACUCUACCAUCACCUAAACUUUACUCUACCAUCACCAGACCUCGCGCCCAGGACGACACACUUUGGACAGGACACACAGGACACAGG
DNA: B1 DNA
B3: binds (Hfq [2]).

B4: (AAC)6-N35-S6 mRNA on DNA tether (mixed)
RNA: GGACUCUAUCGAGUCCAACAACAACAACAACAACCCCUGCAUCACCUAAACUUUACUCUACCAUCACCAGACCUCGCGCCCAGGACGACACACUUUGGACAGGACACACAGGACACAGG
DNA: B1 DNA
B4: binds (Hfq [3]).

B5: (AAC)4-S6-N13-S6 tandem mRNA on DNA tether (mixed)
RNA: GGACUCUAUCGAGUCCAACAACAACAACAGACCUCUCUACCAUCACCAGACCUCGCGCCCAGGACGACACACUUUGGACAGGACACACAGGACACAGG
DNA: B1 DNA
B5: binds (Hfq [4]).

B6: (AAC)4-S6-N35-S6 tandem mRNA on DNA tether (mixed)
RNA: GGACUCUAUCGAGUCCAACAACAACAACAGACCUCUCUACCAUCACCUAAACUUUACUCUACCAUCACCAGACCUCGCGCCCAGGACGACACACUUUGGACAGGACACACAGGACACAGG
DNA: B1 DNA
B6: binds (Hfq [5]).

B7: (AAC)4-S6-N15-S4 tandem mRNA on DNA tether (mixed)
RNA: B5 RNA with A29C, G49C, A50U
DNA: B1 DNA
B7: binds (Hfq [6]).

B8: (AAC)4-S4-N13-S6 tandem mRNA on DNA tether (mixed)
RNA: B5 RNA with G30C, A31U, A48C
DNA: B1 DNA
B8: binds (Hfq [6]).

B9: (AAC)4-S6-N13-S6_SL tandem mRNA on DNA tether (mixed)
RNA: GGACUCUAUCGAGUCCAACAACAACAACAGACCUCUCUACCAUCACCGCAGCAUACUGCUGCAGACCUCGCGCCCAGGACGACACACUUUGGACAGGACACACAGGACACAGG
DNA: B1 DNA
B9: binds (Hfq [7]).
